Results reported in patent publication US20210054055A1.

Target: Dengue virus serotype 4 (DENV4) virions, envelope protein E (Dengue virus 4)

Binder | FRNT50 (focus reduction neutralization on Vero cells)
Anti-ZIKV clone DT168(A)-D1_G-9E (G9E) (antibody, V domains shown) VH: EVQLVESGGGVVQPGRSLRLSCVASGFAFSNYHMHWVRQAPGKGLEWVAIIWDDGSDQYYADSVKGRFTISRDNSKNTLFLQMNRLRAEDTALYYCVGGSSAYNGDNGWREAASLDDWGQGTLVTVSS VL: QSALTQPASVSGSPGQSITIFCSGSSNDVGGYNYVSWYQQYPGKVPKLLIYDVNSRPSGVSNRFSGSKSGNTASLTISGLQAEDEADYYCSSYTSRRTWVFGGGTIVTVL | > 10000 ng/mL
Anti-ZIKV clone DT168(A)-D1_A-9E (A9E) (antibody, V domains shown) VH: EVQLLESGGGLVQAGGSLRLSCAASGFTFDTYAMSWVRQPPGKGLEWVSAISTGGGSKYYADSVKGRLTISRDNSQNTLYLQMSSLRADDTAVYYCARSDFWRSGRYYYYMDVWGRGTTVTVSS VL: QSALTQPASVSASPGQSITISCTGTHFDIVDYDYLSWYQQHPGNAPKLLIYGVSNRPSGVSSRFSGSKSGNTASLTISGLQAEDEGDYYCSSYSISSTLLVFGGGTKLSV | > 10000 ng/mL
